Each block holds one binder with its values, some of them ahead of it.
Legend:
[1] = molecular target: c-abl kinase (UniProt P00519 1-1130, limits assumed); assay: co-immunoprecipitation with PLS3 antibody, Western blot with c-abl antibody
[2] = molecular target: T1, yeast two-hybrid library clone encoding amino acids 103-277 of phospholipid scramblase 3 (human, UniProt Q9NRY6 103-277); assay: yeast two-hybrid
T1 construct: also called PLS3 clone; cDNA cloned from the yeast two-hybrid screen; not shown: fusion partner of the Clontech MatchMaker human liver library vector
T1 sequence (Q9NRY6 103-277): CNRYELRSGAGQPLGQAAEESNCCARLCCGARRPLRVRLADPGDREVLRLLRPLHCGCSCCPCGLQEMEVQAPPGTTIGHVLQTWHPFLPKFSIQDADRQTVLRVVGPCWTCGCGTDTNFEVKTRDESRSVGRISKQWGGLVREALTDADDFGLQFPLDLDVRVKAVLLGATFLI

Chain of c-abl kinase (P00519 whole entry, the tested form may be a part): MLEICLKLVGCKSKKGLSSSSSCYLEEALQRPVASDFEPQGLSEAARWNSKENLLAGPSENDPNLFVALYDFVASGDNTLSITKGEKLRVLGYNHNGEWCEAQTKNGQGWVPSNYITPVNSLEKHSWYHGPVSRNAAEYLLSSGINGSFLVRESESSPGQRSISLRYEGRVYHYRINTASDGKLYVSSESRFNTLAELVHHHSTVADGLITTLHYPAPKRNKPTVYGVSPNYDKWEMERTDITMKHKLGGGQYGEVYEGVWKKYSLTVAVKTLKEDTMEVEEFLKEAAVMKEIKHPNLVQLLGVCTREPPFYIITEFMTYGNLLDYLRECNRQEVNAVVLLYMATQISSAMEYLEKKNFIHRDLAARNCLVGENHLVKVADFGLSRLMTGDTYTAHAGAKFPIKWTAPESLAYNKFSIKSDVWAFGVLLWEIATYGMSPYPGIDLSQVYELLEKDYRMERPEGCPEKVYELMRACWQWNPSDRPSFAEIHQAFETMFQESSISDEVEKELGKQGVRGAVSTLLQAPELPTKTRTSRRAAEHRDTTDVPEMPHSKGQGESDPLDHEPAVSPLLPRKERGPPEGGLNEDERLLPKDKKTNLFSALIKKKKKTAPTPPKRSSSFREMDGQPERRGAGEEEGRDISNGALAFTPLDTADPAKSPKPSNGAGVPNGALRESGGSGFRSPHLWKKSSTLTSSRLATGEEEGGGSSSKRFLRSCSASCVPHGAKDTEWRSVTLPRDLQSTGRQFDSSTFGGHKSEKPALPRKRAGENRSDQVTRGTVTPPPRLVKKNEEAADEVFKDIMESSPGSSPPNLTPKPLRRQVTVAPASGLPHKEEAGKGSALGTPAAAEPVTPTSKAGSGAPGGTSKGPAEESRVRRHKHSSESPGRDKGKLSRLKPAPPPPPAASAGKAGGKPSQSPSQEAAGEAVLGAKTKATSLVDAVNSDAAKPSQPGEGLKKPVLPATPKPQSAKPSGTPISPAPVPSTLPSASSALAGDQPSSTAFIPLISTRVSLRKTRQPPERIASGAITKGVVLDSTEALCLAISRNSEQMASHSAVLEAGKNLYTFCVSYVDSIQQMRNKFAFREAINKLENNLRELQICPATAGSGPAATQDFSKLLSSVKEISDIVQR

binding result [1]: no binding
B1: phospholipid scramblase 3 (PLS3), human, isoform not stated (enzyme)
chain: not shown
modifications: phosphothreonine, position not stated (shown by the anti-PT blot of immunoprecipitated PLS3)
notes: also called endogenous PLS3; wild-type PLS3

binding result [2]: no binding
B2: lamin C control bait (pAS2-lamin C) (other, UniProt P02545-2 66-230, looked up)
chain: SEEVVSREVSGIKAAYEAELGDARKTLDSVAKERARLQLELSKVREEFKELKARNTKKEGDLIAAQARLKDLEALLNSKEAALSTALSEKRTLEGELHDLRGQVAKLEAALGEAKKQLQDEMLRRVDAENRLQTMKEELDFQKNIYSEELRETKRRHETRLVEID
notes: also called control bait lamin C; not shown: bait fusion partner encoded by the pAS2 vector

— US20060172958A1 (published 2006)
